# Measured values from PMC5109294, “NANOG reprograms prostate cancer cells to castration resistance via dynamically repressing and engaging the AR/FOXA1 signaling axis”.
# T1: FOXA1 (Homo sapiens, UniProt P55317 1-472)
# T1 sequence: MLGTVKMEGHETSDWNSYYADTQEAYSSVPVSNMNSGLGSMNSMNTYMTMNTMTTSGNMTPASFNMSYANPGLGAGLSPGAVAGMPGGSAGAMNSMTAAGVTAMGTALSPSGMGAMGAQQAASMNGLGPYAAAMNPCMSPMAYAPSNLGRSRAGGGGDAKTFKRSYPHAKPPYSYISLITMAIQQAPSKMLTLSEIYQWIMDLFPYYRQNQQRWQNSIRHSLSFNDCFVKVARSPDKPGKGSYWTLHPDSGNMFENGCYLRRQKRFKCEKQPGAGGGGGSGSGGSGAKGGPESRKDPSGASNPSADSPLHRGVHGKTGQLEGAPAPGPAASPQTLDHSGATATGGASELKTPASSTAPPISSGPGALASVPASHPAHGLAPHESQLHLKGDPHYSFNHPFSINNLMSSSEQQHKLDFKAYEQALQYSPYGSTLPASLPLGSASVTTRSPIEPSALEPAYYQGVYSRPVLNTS
# B1: FOXA1 motif probe, UBE2C gene promoter (dsDNA)
# DNA 1: CTTAGTGTTTATTTCAAGCT
# DNA 2: AGCTTGAAATAAACACTAAG
# Biological target: T1, FOXA1
# Assay: EMSA; 100 ng protein; competed by 300x unlabeled probe; weaker than NP8 at 1:1; LightShift Chemiluminescent EMSA kit; probe annealed in 20 mM Tris-HCl pH 7.5, 150 mM NaCl; 4-20% native gel, 0.5X TBE; binding buffer and temperature not stated
# Details: protein: recombinant; tags: GST (pGEX-6p-1); label: biotin (both strands); blunt; some single-stranded primer remains after annealing
binder,measurement,value
B1,binding result,binds
